In the experiment the target is T1, endoglin (CD105) of human endothelial cells (HUVEC and other endothelial cells) (human, UniProt P17813 26-658).
T1 construct: whole, on cells; In the immunoprecipitation the protein came from a non-denaturing lysate of 35S-methionine-labelled HUVEC; In immunofluorescence and flow cytometry it was on cells; also called endoglin-expressing HUVEC; endoglin-expressing endothelial cells
T1 sequence (looked up): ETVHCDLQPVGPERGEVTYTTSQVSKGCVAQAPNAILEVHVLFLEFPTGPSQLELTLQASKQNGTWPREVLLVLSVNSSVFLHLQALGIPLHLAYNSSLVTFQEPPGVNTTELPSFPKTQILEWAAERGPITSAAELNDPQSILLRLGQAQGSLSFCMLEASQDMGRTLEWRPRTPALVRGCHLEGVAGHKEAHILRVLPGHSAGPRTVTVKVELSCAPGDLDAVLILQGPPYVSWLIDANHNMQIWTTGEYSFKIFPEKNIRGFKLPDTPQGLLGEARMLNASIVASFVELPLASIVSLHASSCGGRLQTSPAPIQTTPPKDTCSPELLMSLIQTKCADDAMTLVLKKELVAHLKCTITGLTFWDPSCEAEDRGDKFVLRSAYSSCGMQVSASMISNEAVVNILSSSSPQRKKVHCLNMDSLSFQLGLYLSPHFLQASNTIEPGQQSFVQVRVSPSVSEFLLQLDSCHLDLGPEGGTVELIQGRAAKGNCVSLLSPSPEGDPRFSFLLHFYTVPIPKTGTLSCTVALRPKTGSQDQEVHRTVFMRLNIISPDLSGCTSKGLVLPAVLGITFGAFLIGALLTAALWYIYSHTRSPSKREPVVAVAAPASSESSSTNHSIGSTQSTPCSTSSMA
The experiment in a line: immunoprecipitation from non-denaturing lysate of 35S-methionine-labelled HUVEC.

Experimental findings from US20040053329A1 (published 2004) are described below.

Experimental: Endoglin from primary human umbilical cord endothelial cells (HUVEC) was detected by means of immunoprecipitation under non-denaturing conditions. For this purpose, the [³⁵S]-methionine-labelled endothelial cells were lysed with lysing buffer (10 mM Tris-HCl pH 7.5, 150 mM NaCl, 1% sodium deoxycholate, 1% Nonidet P40) for 30 min at 4° C. […] The complexes were washed several times with lysing buffer and finally resuspended in 20 μL SDS-PAGE charge buffer. After separation in the SDS-polyacrylamide gel, the gel was immobilised for 30 min in 30% methanol and 10% acetic acid and subsequently mixed with amplification solution (Amersham-Buchler). The gel was dried and exposed with an x-ray film.

B1: scFv C4 (anti-endoglin polypeptide C4 in the form of an scFv fragment) (scFv, not shown: small tags and cut ends)
scFv: AQVQLVQSGAEVKKPGATVKISCKVSGYTFTDYYMHWVQQAPGKGLEWMGLVDPEDGETIYAEKFQGRVTITADTSTDTAYMELSSLRSEDTAVYYCARRTTHGPDPHWGQGTLVTVSSGGGGSGGGGSGGSALDIQLTQSPSSLSASVGDRVTITCRASQSISSYLNWYQRKPGKAPKLLIYAASSLQSGVPSRFSGSGSGTDFTLTISSLQPEDFATYYCQQSYSTRTFGQGTKLEIKR
notes: also called polypeptide scFv C4; anti-endoglin-antibody
With B1, the binding result is on record as “binds”.
